Experimental data taken from patent EP0920630B1.

Target: PrPBPs (prion protein binding proteins) on the surface of G8 cells (mouse muscle cell line)
Test: Scatchard analysis, bound AP activity on G8 cells

“PrP-AP fusion protein (murine PrP fused to secreted human placental heat-stable alkaline phosphatase) (from UniProt P04925 23-229; P05187 23-511)” was tested, and the Kd was 1.48 nM and the PrP-AP binding sites (Bmax) (binding sites) was 100000.
